These results are taken from patent US20150132307A1.

The target in assay [1] is Biotinylated murine soluble TWEAK (amino acids 81-225 of SEQ ID NO: 69) (murine) (UniProt O54907). Description: SPR (Biacore), further experiment, biotinylated soluble TWEAK on streptavidin chip, 25 C.
For assay [2] the target is unchanged. Description: SPR (Biacore 2000), biotinylated soluble TWEAK on streptavidin chip, antibody 100 nM as analyte, 25 C.
Assay [3] shares this target. The assay can be described thus: SPR (Biacore), biotinylated soluble TWEAK on streptavidin chip, 25 C.
For assay [4] the target is unchanged. The assay can be described thus: SPR (Biacore), biotinylated soluble TWEAK on streptavidin chip, 37 C.

B1: <TWEAK> 305chi (antibody, human IgG1, kappa, V domains shown)
VH: QEQLVESGGGLVQPGGSLTLSCKASGFDFSTYYMSWVRQAPGKGLEWIGTVYVRQGTTYYASWLNGRFTISSDNAQNTVDLKMNSLTAADTATYFCAKGGYNYDDAFVIWGPGTLVTVSF
VL: AIEMTQTPFSVSAAVGGTVTINCQASQNIYSNLAWYQQKPGQPPKLLMYTASYLASGVPSRFKGSGSRTEYTLTISGVQCADAATYYCQTAYYNSRPDTVAFGGGTEVVVKR
As for B1, the results for the t/2 diss [min] 25° C. in assay [1] and in assay [2] were 41 min and 39 min, respectively.

B2: Humanized <TWEAK> 305- antibody 27 (antibody, V domains shown)
VH: QVQLVQSGAEVKKPGSSVKVSCKASGFDFSTYYMSWVRQAPGQGLEWMGTVYVRQGTTYYASWLNGRVTITADESTSTAYMELSSLRSEDTAVYYCARGGYNYDDAFVIWGQGTLVTVSS
VL: DIQMTQSPSSVSASVGDRVTITCQASQNIYSNLAWYQQKPGKAPKLLIYTASYLASGVPSRFSGSGSGTDYTLTISSLQPEDFATYYCQTAYYNSRPDTVAFGGGTKVEIK
With B2, the Biacore t/2 diss. [min] 25° C. murine in assay [3] worked out at 19 min. Further, the Biacore t/2 diss. [min] 37° C. murine in assay [4] worked out at 19 min.

B3: Humanized <TWEAK> 305- antibody 32 (antibody, V domains shown)
VH: EVQLLESGGGLVQPGGSLRLSCAASGFDFSTYYMSWVRQAPGKGLEWVSTVYVRQGTTYYASWLNGRFTISRDNSKNTLDLQMNSLRAEDTAVYYCAKGGYNYDDAFVIWGQGTLVTVSS
VL: DIQMTQSPSTLSASVGDRVTITCQASQNIYSNLAWYQQKPGKAPKLLIYTASYLASGVPSRFSGSGSGTEFTLTISSLQPDDFATYYCQTAYYNSRPDTVAFGGGTKVEIK
Molecule B3 came in with a Biacore t/2 diss. [min] 25° C. murine in assay [3] of 17 min. For the same molecule, in assay [4], the Biacore t/2 diss. [min] 37° C. murine turned out to be 20 min.

B4: Humanized <TWEAK> 305- antibody 33 (antibody, V domains shown)
VH: QVQLVQSGAEVKKPGSSVKVSCKASGFDFSTYYMSWVRQAPGQGLEWMGTVYVRQGTTYYASWLNGRVTITADESTSTAYMELSSLRSEDTAVYYCARGGYNYDDAFVIWGQGTLVTVSS
VL: AIRMTQSPSSFSASTGDRVTITCQASQNIYSNLAWYQQKPGKAPKLLIYTASYLASGVPSRFSGSGSGTDYTLTISCLQSEDFATYYCQTAYYNSRPDTVAFGGGTKVEIK
B4: the Biacore t/2 diss. [min] 25° C. murine in assay [3] turned out to be 19 min. Further, the Biacore t/2 diss. [min] 37° C. murine in assay [4] is 15 min.

B5: Humanized <TWEAK> 305- antibody 29 (antibody, V domains shown)
VH: EVQLLESGGGLVQPGGSLRLSCAASGFDFSTYYMSWVRQAPGKGLEWVSTVYVRQGTTYYASWLNGRFTISRDNSKNTLDLQMNSLRAEDTAVYYCAKGGYNYDDAFVIWGQGTLVTVSS
VL: DIQMTQSPSSVSASVGDRVTITCQASQNIYSNLAWYQQKPGKAPKLLIYTASYLASGVPSRFSGSGSGTDYTLTISSLQPEDFATYYCQTAYYNSRPDTVAFGGGTKVEIK
B5: the Biacore t/2 diss. [min] 25° C. murine in assay [3] was 22 min. In assay [4], this molecule had a Biacore t/2 diss. [min] 37° C. murine of 21 min.

B6: Humanized <TWEAK> 305- antibody 31 (antibody, V domains shown)
VH: EVQLLESGGGLVQPGGSLTLSCAASGFDFSTYYMSWVRQAPGKGLEWVSTVYVRQGTTYYASWLNGRFTISRDNSKNTLYLQMNSLRAEDTAVYYCAKGGYNYDDAFVIWGQGTLVTVSS
VL: AIRMTQSPSSFSASTGDRVTITCQASQNIYSNLAWYQQKPGKAPKLLIYTASYLASGVPSRFSGSGSGTDYTLTISCLQSEDFATYYCQTAYYNSRPDTVAFGGGTKVEIK
Consider B6, for which the Biacore t/2 diss. [min] 25° C. murine in assay [3] came out at 19 min. In addition, the Biacore t/2 diss. [min] 37° C. murine in assay [4] was found to be 19 min.

B7: Humanized <TWEAK> 305- antibody 34 (antibody, V domains shown)
VH: EVQLLESGGGLVQPGGSLRLSCAASGFDFSTYYMSWVRQAPGKGLEWVSTVYVRQGTTYYASWLNGRFTISRDNSKNTLYLQMNSLRAEDTAVYYCAKGGYNYDDAFVIWGQGTLVTVSS
VL: AIRMTQSPSSFSASTGDRVTITCQASQNIYSNLAWYQQKPGKAPKLLIYTASYLASGVPSRFSGSGSGTDYTLTISCLQSEDFATYYCQTAYYNSRPDTVAFGGGTKVEIK
For the molecule B7, the Biacore t/2 diss. [min] 25° C. murine in assay [3] stood at 22 min. In assay [4], this molecule yielded a Biacore t/2 diss. [min] 37° C. murine of 20 min.

B8: Humanized <TWEAK> 305- antibody 30 (antibody, V domains shown)
VH: EVQLLESGGGLVQPGGSLRLSCAASGFDFSTYYMSWVRQAPGKGLEWVSTVYVRQGTTYYASWLNGRFTISRDNSKNTLYLQMNSLTAEDTAVYYCAKGGYNYDDAFVIWGQGTLVTVSS
VL: DIQMTQSPSSVSASVGDRVTITCQASQNIYSNLAWYQQKPGKAPKLLIYTASYLASGVPSRFSGSGSGTDFTLTISSLQPEDFATYYCQTAYYNSRPDTVAFGGGTKVEIK
Consider B8, for which the Biacore t/2 diss. [min] 25° C. murine in assay [3] was determined as 17 min. The molecule further displayed a Biacore t/2 diss. [min] 37° C. murine in assay [4] of 15 min.

B9: Humanized <TWEAK> 305- antibody 28 (antibody, V domains shown)
VH: EVQLLESGGGLVQPGGSLTLSCAASGFDFSTYYMSWVRQAPGKGLEWVSTVYVRQGTTYYASWLNGRFTISRDNSKNTLYLQMNSLRAEDTAVYYCAKGGYNYDDAFVIWGQGTLVTVSS
VL: DIQMTQSPSSVSASVGDRVTITCQASQNIYSNLAWYQQKPGKAPKLLIYTASYLASGVPSRFSGSGSGTDYTLTISSLQPEDFATYYCQTAYYNSRPDTVAFGGGTKVEIK
Turning to B9, the Biacore t/2 diss. [min] 25° C. murine in assay [3] is 19 min. In addition, the Biacore t/2 diss. [min] 37° C. murine in assay [4] was 17 min.
